Consider one substance from patent US20190031733A1.

In the test the target is Pmel-TCR (mouse). Kind of test: flow cytometry, APC-tetramer staining of FACS-sorted 293TREx-CD3-Pmel-TCR cells.
Sequence of Pmel-TCR (mouse) (TCR alpha, as listed by the source, form in doubt, chain 1 of 2): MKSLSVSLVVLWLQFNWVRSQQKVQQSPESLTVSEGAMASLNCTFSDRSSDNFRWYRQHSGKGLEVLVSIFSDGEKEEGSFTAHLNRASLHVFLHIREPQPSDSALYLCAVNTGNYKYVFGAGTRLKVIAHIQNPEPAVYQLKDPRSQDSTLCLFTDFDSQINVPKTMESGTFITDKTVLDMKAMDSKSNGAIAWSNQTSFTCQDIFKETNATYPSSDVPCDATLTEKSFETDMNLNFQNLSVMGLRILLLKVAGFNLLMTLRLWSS
Sequence of Pmel-TCR (mouse) (TCR beta, as listed by the source, form in doubt, chain 2 of 2): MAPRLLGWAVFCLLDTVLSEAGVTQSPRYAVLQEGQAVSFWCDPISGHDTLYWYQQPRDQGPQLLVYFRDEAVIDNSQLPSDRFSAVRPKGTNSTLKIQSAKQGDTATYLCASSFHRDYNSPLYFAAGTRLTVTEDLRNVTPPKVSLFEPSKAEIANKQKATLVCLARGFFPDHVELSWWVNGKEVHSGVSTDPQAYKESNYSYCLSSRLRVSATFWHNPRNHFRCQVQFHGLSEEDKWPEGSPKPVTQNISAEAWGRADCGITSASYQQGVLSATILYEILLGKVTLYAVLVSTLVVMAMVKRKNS

Sequence of APC-streptavidin tetramer of H-2D^b mouse MHC class I molecules loaded with the human gp100 peptide … (P01899 25-362): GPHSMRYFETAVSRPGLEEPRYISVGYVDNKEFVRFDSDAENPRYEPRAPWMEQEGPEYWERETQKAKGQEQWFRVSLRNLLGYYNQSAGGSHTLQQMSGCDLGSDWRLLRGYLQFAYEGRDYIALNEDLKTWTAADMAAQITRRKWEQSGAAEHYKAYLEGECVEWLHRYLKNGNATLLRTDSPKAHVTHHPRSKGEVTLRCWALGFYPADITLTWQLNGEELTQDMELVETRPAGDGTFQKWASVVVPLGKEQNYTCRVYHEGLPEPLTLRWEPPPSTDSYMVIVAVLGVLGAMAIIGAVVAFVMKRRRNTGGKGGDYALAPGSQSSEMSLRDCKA

Turning to “APC-streptavidin tetramer of H-2D^b mouse MHC class I molecules loaded with the human gp100 peptide … (from UniProt P01899 25-362) (peptide-MHC)”, the percent of cells stained with the tetramers came out at 81.5%.
